Results: patent publication US20250368729A1

What was measured:
[1] = molecular target: synthetic amyloid-like fibrils of recombinant amyloidogenic λ6 variable domain protein (rVλ6Wil); assay: EuLISA, fibrils coated on plate (FIG. 13A)
[2] = molecular target: synthetic amyloid-like fibrils of recombinant amyloidogenic λ6 variable domain protein (rVλ6Wil); assay: EuLISA, fibrils coated on plate (FIG. 13B)

| EC50 [1] [nM] | EC50 [2] [nM] | Binder |
| --- | --- | --- |
| 95 | 95 | humanized antibody VH6/VL3 (antibody, V domains shown) VH: QVQLQESGPGLVKPSETLSLTCTVSGFSLSSYGVSWVRQPPGKGLEWLGVIWGDGSTNYHPNLMSRLSISKDTSKNQFSLKLSSVTAADTATYYCVTLDYWGQGTSVTVSS VL: DVVMTQSPLSLPVTLGQPASISCRSSQSLVHRNGNTYLHWYLQRPGQSPRLLIYKVSNRFSGVPDRFSGSGSGTDFTLKISRVEAEDVGLYFCFQTTYVPNTFGGGTKLEIK |
| 16 | – | humanized antibody VH8/VL4 (antibody, V domains shown) VH: QVQLQESGPGLVKPSETLSLTCTVSGFSLSSYGVSWIRQPPGKGLEWIGVIWGDGSTNYHPNLMSRVTISKDTSKSQFSLKLSSVTAADTAVYYCVTLDYWGQGTSVTVSS VL: DVVMTQSPLSLPVTLGQPASISCRSSQSLVHRNGNTYLHWFQQRPGQSPRLLIYKVSNRFSGVPDRFSGSGSGTDFTLKISRVEAEDVGVYFCFQTTYVPNTFGGGTKLEIK |
| 17 | – | humanized antibody VH10/VL4 (antibody, V domains shown) VH: QVQLQESGPGLVKPSETLSLTCTVSGFSLSSYGVSWIRQPPGKGLEWLGVIWGDGSTNYHPNLMSRLSISKDTSKSQVLLKLSSVTAADTAVYYCVTLDYWGQGTSVTVSS VL: DVVMTQSPLSLPVTLGQPASISCRSSQSLVHRNGNTYLHWFQQRPGQSPRLLIYKVSNRFSGVPDRFSGSGSGTDFTLKISRVEAEDVGVYFCFQTTYVPNTFGGGTKLEIK |
| 75 | – | humanized antibody VH7/VL4 (antibody, V domains shown) VH: QVQLQESGPGLVKPSETLSLTCTVSGFSLSSYGVSWIRQPPGKGLEWIGVIWGDGSTNYHPNLMSRVTISKDTSKNQVLLKLSSVTAADTAVYYCVTLDYWGQGTSVTVSS VL: DVVMTQSPLSLPVTLGQPASISCRSSQSLVHRNGNTYLHWFQQRPGQSPRLLIYKVSNRFSGVPDRFSGSGSGTDFTLKISRVEAEDVGVYFCFQTTYVPNTFGGGTKLEIK |
